Several values for one entry are separate records, joined by “and”; a condition that tells them apart may be missing. Identical values can stand only once.
Target: catalytically deactivated LbCpf1 (dLbCpf1)(dLbCas12a) with eight copies of GCN4 epitopes fused to the C-terminus (Lachnospiraceae bacterium)
Assay: cell-based or functional assay

## antibody targeted toward the GCN4 epitope fused to hAPOBEC3A (scFv)
  C to T editing efficiency compared to unfused dCpf1 (NGS, HEK293T cells): < 5 fold
  C to T editing rate (NGS, HEK293T cells, not sorted for transfected cells) (% of treated cell population): 7 and 19
